{"source": "paper PMC5812989", "about": "“Evaluation of HER2-specific peptide ligand for its employment as radiolabeled imaging probe” (Scientific Reports, 2018)", "key": {"[1]": {"system": "HER2-expressing BT474 cells", "test": "LigandTracer / InteractionMap kinetics of binding to living HER2-expressing cells", "design": "species or system human", "details": "1:2 interaction model, room temperature, 4, 12 and 36 nM, read-out: affinity, weaker binding site (low affinity interaction)", "procedure": "For cell studies, the HER2-expressing breast carcinoma cell line BT474 (from ATCC) was used. The cell line was cultured in RPMI medium (Flow Irvine, UK) supplemented with 10% fetal calf serum (Sigma, USA), 2 mM L-glutamine and PEST (penicillin 100 IU/mL and 100 μg/mL streptomycin), all from Biokrom Kg, Germany.\nCells from the human breast carcinoma cell line BT474 were seeded on a local area of a cell culture dish (NunclonTM, Size 100620, NUNC A/S, Roskilde, Denmark), as described by Björke and Andersson[63]. The binding of ^111In-DTPA-A9 to living cells was monitored in real-time at room temperature using LigandTracer Yellow, using method established by Björke and Andersson[63]. In brief, the cell culture dish was placed on the sloping and rotating cell dish holder in LigandTracer Yellow, followed by a continuous monitoring of the radioactivity level along the rim of the dish. If the labelled peptide binds to the cells, an elevated signal will be recorded when the cells pass by the detector. […] Binding and dissociation curves were analyzed by InteractionMap software as described by Björkelund et al. to calculate affinity of ^111In-DTPA-A9 binding to living HER2-expressing cells.\nAdditionally, specificity of ^111In-DTPA-A9 binding to HER2 expressing cells was evaluated using pre-saturation of receptors by trastuzumab and by using ^111In-labeled scrambled DTPA-A9 (^111In- DTPA-S-A9). […]"}, "[2]": {"design": "species or system BALB/c nu/nu mice", "details": "mouse, in vivo", "procedure": "Four BALB/C nu/nu mice were used for the biodistribution studies. At the time of experiment, the average animal weight was 20.5 ± 0.9 g. Animals were injected intravenously (tail vein) with 3 µg (30 kBq) of ^111In-DTPA-A9 in 100 µL PBS. Since DTPA-A9 peptide resulted stable to serum proteolytic degradation in a range of 90 minutes (for details see Supplementary Information Fig. S6), at 1 hour after injection, a mixture of Ketalar-Rompun (20 µL of solution per gram body weight; Ketalar: 10 mg/mL; Rompun: 1 mg/mL) was injected intraperitonealy, and the mice were euthanized by a heart puncture using a syringe, pre-washed with diluted heparin (5000 IE/mL). Blood as well as brain, stomach, pancreas, lung, liver, spleen, kidneys, samples of muscle and bone, gastrointestinal tract (with its content) and remaining carcass were collected in pre-weighed plastic vials. Organs and tissue samples were weighed and measured for radioactivity using an automatic gamma counter. The tissue uptake values were calculated as per cent injected activity per gram of tissue (% ID/g) and per whole sample (% ID/sample). The gastrointestinal tract and the carcass uptakes were calculated only as % ID per whole sample. The radioactivity in the gastrointestinal tract with its content was used as a measure of hepatobiliary excretion."}, "[3]": {"test": "In vitro peptide stability in serum (HPLC)", "type": "in vitro ADME", "details": "during one hour; 0.5 mg/mL, RPMI with 10% FBS, 37 °C", "procedure": "Figure S4: In vitro Peptide Stability in Serum. A9 modified peptides at concentration of 0.5 mg/mL were dissolved in RPMI containing 10% of FBS (fetal bovine serum) and incubated at 37 °C. Samples (50 μL) were taken regularly (t = 0, 0.5, 1, 2, 3, 6, and 24 h) and mixed with 100 μL of CH3CH2OH (96%), for precipitation of serum proteins. The cloudy reaction sample is cooled (4 °C) for 15 min and then spin at 16,000 rpm for 2 min, to pellet the precipitated serum proteins^1. The chromatographic analysis of samples (30 μL injected for each injection) were performed on an Alliance HT WATERS 2795 system, equipped with a PDA WATERS detector 2996 using a […] C18 Waters xBridge (3 μm, 4.6 x 50 mm) column, with a linear gradient from 5% to 70% of 0.05% TFA in CH3CN (Solvent B) over 20 min at a flow rate of 0.2 mL/min. […] Results are mean of three independent experiments performed in duplicate."}}, "note": "Where a SMILES comes first, the peptide text is derived from it. Where no end group is shown, it is not given here. The star is where a group is joined. DTPA = O=C(O)CN(CCN(CC(=O)O)CC(=O)O)CCN(CC(=O)O)CC(=O)*", "data": [{"molecule": "^111In-DTPA-SA9: 111In-labeled scrambled conjugate, same amino acids as A9 but in a different order ({DTPA}-WAVQNTDAV-NH2; also: DTPA complexed with 111In)", "values": [{"measurement": "Kd", "setting": "[1]", "result": 103, "unit": "nM"}]}, {"molecule": "CC(C)[C@H](NC(=O)[C@H](C)NC(=O)[C@@H](NC(=O)[C@H](CC(N)=O)NC(=O)[C@@H](NC(=O)[C@H](CC(=O)O)NC(=O)[C@H](CCC(N)=O)NC(=O)CN(CCN(CCN(CC(=O)O)CC(=O)O)CC(=O)O)CC(=O)O)C(C)C)[C@@H](C)O)C(=O)N[C@@H](C)C(=O)N[C@@H](Cc1c[nH]c2ccccc12)C(N)=O", "note": "[^111In-DTPA-A9, metal not drawn] ({DTPA}-QDVNTAVAW-NH2)", "values": [{"measurement": "radioactivity in the gastrointestinal tract with content", "setting": "[2]", "result": "approximately 1 % of injected activity"}, {"measurement": "uptake, blood", "setting": "[2]; iv, 1 h", "result": "0.24 ± 0.04", "unit": "% ID/g"}, {"measurement": "uptake, bone", "setting": "[2]; iv, 1 h", "result": "0.16 ± 0.13", "unit": "% ID/g"}, {"measurement": "uptake, brain", "setting": "[2]; iv, 1 h", "result": "0.03 ± 0.03", "unit": "% ID/g"}, {"measurement": "uptake, liver", "setting": "[2]; iv, 1 h", "result": "0.44 ± 0.04", "unit": "% ID/g"}, {"measurement": "uptake, lung", "setting": "[2]; iv, 1 h", "result": "0.5 ± 0.3", "unit": "% ID/g"}, {"measurement": "uptake, muscle", "setting": "[2]; iv, 1 h", "result": "0.01 ± 0.01", "unit": "% ID/g"}, {"measurement": "uptake, pancreas", "setting": "[2]; iv, 1 h", "result": "0.13 ± 0.03", "unit": "% ID/g"}, {"measurement": "uptake, spleen", "setting": "[2]; iv, 1 h", "result": "0.22 ± 0.01", "unit": "% ID/g"}, {"measurement": "uptake, stomach", "setting": "[2]; iv, 1 h", "result": "0.27 ± 0.07", "unit": "% ID/g"}]}, {"molecule": "QDVNTAVAW-NH2 [A9]", "values": [{"measurement": "stability on incubation in vitro with blood serum", "setting": "[3]", "result": "high stability"}]}]}
